Data published in article PMC6937325, “Tuning PFKFB3 Bisphosphatase Activity Through Allosteric Interference” (Scientific Reports, 2019).

What was measured:
[1] = molecular target: T1, human inducible phospho-fructokinase bisphosphatase isoform 3, PFKFB3 (human), Q16875; experiment: MST; compound in MST buffer mixed 1:1 with 100 nM RED-NHS labeled recombinant PFKFB3, incubated 20 min at room temperature; Nanotemper
[2] = molecular target: T1, human inducible phospho-fructokinase …

T1 sequence (Q16875 whole entry, canonical isoform): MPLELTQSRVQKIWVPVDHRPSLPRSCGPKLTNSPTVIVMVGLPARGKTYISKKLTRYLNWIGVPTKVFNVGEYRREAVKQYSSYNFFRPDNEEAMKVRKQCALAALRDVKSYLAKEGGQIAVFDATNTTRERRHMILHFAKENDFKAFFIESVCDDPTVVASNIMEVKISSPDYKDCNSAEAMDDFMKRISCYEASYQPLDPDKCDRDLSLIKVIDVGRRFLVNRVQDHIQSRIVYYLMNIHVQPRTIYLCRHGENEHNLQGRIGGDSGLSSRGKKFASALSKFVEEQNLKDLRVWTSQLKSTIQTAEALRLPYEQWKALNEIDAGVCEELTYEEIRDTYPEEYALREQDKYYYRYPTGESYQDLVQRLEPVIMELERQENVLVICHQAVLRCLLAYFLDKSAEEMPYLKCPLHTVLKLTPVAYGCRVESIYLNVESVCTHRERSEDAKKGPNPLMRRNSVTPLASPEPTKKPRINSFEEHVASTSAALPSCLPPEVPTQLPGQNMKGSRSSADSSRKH

Kd [1] [µM]	PFKFB3 bisphosphatase velocity (LC-MS/MS of F6P) with compound 4, substrate F2,6BP 20-50 µM; not significantly different from enzyme alone (nmol/min of F6P per nmol of enzyme) [2]	Binder
18	0.14	YSGFLT (modifications not checked) [compound 4]
44	–	SFLLR (modifications not checked) [compound 5]
